Earlier results in article PMC3476528.

Biological target: histone H3 (Homo sapiens) (UniProt P68431)

Chain of CHD4 PHD2 (Q14839 449-496): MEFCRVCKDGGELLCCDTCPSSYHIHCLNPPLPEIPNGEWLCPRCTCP

Kd: 18 µM
Substance: CHD4 PHD2 (from UniProt Q14839)
